Laboratory results: publication PMC11661604 (2024)
Where two headings read alike, the source gives them in different places.

How the values were obtained:
[1] = molecular target: T1, native Semliki Forest virus (SFV) virion (Semliki Forest virus); experiment: SPR
[2] = molecular target: T1, native Semliki Forest virus (SFV) virion; experiment: SPR; remark: listed apart in the source

MRTCRIHEISCGAHSTQCIPVSWRCDGENDCDSGEDEENCGNI (Fc fusion) [LA3-Fc]
Kd [1]: 1020 nM | Kd [2]: 1170 nM

MRTCRIHEISCGAHSTACIPVSWRCDGENDCDSGEDEENCGNI (Fc fusion) [LA3-Fc Q126A]
Kd [2]: 11700 nM

MRTCAIHEISCGAHSTQCIPVSWRCDGENDCDSGEDEENCGNI (Fc fusion) [LA3-Fc R114A]
Kd [2]: 1580 nM

B1: LA1-3-Fc (Fc fusion)
chain: not shown
Kd [1]: 523 nM
